The text below walks through data of doi:10.1101/2021.01.12.426394.

Where no end group is shown, it is not given here.

In assay [1] the target is honeybee tachykinin-related peptide receptor, FLAG-TRPR expressed in HEK293 cells (Apis mellifera). In words: competitive binding of a fluorescent ligand on cells.
Assay [2] concerns the target honeybee tachykinin-related peptide receptor, FLAG-TRPR expressed in Sf21 cells (Apis mellifera). The description is as above.

The term IC50 denotes the midpoint of a concentration-inhibition curve. A low value points to higher potency. In the case of ALMGFQGVR-NH2 [tachykinin-related peptide 2 (TRP2), unlabeled], the results for the 50% inhibitory concentration (IC50) in assay [1] and in assay [2] were 2.34 nM and 8.76 nM, respectively.
For APMGFQGMR-NH2 [tachykinin-related peptide 3 (TRP3), unlabeled], the IC50 amounted to 6.29 nM in assay [1] and 34.9 nM in assay [2].
